Measurements published in paper PMC5040716.

Tested on: MgaSpn-His (Streptococcus pneumoniae)
Test: EMSA
Details: MgaSpn EMSA: 40 mM Tris-HCl pH 7.6, 1 mM DTT, 0.4 mM EDTA, 1-2% glycerol, 50 mM NaCl, 10 mM MgCl2, 500 ug/ml BSA, 2 nM DNA, ambient, 20 min; MgaSpn footprint: …

hlyR 288-bp fragment
Kd: 50 nM

hlyC 290-bp fragment
Kd: 75 nM
